Data published in paper PMC8741639 (Structure (London, England : 1993), 2021).

Target: the molecule itself
Test: cryo-EM structure

B1: AcrA, periplasmic membrane fusion protein of the AcrAB-TolC efflux pump (natural protein)
chain: CDDKQAQQGGQQMPAVGVVTVKTEPLQITTELPGRTSAYRIAEVRPQVSGIILKRNFKEGSDIEAGVSLYQIDPATYQATYDSAKGDLAKAQAAANIAQLTVNRYQKLLGTQYISKQEYDQALADAQQANAAVTAAKAAVETARINLAYTKVTSPISGRIGKSNVTEGALVQNGQATALATVQQLDPIYVDVTQSSNDFLRLKQELANGTLKQENGKAKVSLITSDGIKFPQDGTLEFSDVTVDQTTGSITLRAIFPNPDHTLLPGMFVRARLEEGLNPNAILVPQQGVTRTPRGDATVLVVGADDKVETRPIVASQAIGDKWLVTEGLKAGDRVVISGLQKVRPGVQVKAQEVTADNNQQAASGAQPEQSKS
Which “stoichiometry N” value does the source give for B1 here?
The value was 6.
